Results on 1 molecule are retold here after US20170305994A1.

The assay addresses T1, human DR3 (full length, on cells) (human) (UniProt Q93038).
T1 sequence: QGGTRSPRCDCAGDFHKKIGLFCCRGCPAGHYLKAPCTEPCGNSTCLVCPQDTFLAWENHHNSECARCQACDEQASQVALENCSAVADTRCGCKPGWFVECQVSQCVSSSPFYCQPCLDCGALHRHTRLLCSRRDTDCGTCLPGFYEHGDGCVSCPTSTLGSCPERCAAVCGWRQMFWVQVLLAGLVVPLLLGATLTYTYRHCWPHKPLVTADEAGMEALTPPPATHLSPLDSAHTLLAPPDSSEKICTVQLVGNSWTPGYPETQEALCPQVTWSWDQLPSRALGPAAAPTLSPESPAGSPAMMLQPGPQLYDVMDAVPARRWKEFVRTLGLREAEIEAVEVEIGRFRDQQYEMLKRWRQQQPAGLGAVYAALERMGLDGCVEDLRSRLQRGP
The experiment in a line: cell-based or functional assay.

B1: TL1A (R&D Systems) (ligand, UniProt O95150 72-251, looked up)
chain: LKGQEFAPSHQQVYAPLRADGDKPRAHLTVVRQTPTQHFKNQFPALHWEHELGLAFTKNRMNYTNKFLLIPESGDYFIYSQVTFRGMTSECSEIRQAGRPNKPDSITVVITKVTDSYPEPTQLLMGTKSVCEVGSNWFQPIYLGAMFSLQEGDKLMVNVSDISLVDYTKEDKTFFGAFLL
Take B1: the fold response, DR3 reporter, 40 ng/ml TL1A alone amounted to 32.8 fold.
